Data on 1 molecule can be found in US20210032329A1.

One may read the Kd as the constant that tells how readily two partners part at equilibrium. The term koff denotes the rate constant with which the complex falls apart. Broadly, the kon is a measure of how fast the partners come together. A word on the EC50: it is the concentration that produces a half-maximal response.

Test [1] has as its target marmoset SEMA4D-His (marmoset). Put plainly: BIACORE; antibody captured with goat anti-human IgG Fc, marmoset SEMA4D-His as analyte. Background: SPR reads the build-up and loss of mass on a sensor chip optically.
In test [2] the target is marmoset SEMA4D-His (marmoset). Put plainly: BIACORE; antibody captured with goat anti-human IgG Fc, marmoset SEMA4D-His as analyte (second row for this antibody).
Test [3] addresses cynomolgus monkey SEMA4D-His (cynomolgus monkey). Put plainly: receptor blocking; antibody dilution series pre-incubated with SEMA4D-His, binding to 293PLXNB1 cells (Plexin B1) read by flow cytometry.
Another test has as its target human SEMA4D-His (human) (UniProt Q92854). The description is as above.
A further test concerns the target mouse SEMA4D-His (mouse) (UniProt O09126). The description is as above.
Another test deals with rat SEMA4D-His (rat). The description is as above.
rat SEMA4D-His (rat), sequence (chain, as listed by the source): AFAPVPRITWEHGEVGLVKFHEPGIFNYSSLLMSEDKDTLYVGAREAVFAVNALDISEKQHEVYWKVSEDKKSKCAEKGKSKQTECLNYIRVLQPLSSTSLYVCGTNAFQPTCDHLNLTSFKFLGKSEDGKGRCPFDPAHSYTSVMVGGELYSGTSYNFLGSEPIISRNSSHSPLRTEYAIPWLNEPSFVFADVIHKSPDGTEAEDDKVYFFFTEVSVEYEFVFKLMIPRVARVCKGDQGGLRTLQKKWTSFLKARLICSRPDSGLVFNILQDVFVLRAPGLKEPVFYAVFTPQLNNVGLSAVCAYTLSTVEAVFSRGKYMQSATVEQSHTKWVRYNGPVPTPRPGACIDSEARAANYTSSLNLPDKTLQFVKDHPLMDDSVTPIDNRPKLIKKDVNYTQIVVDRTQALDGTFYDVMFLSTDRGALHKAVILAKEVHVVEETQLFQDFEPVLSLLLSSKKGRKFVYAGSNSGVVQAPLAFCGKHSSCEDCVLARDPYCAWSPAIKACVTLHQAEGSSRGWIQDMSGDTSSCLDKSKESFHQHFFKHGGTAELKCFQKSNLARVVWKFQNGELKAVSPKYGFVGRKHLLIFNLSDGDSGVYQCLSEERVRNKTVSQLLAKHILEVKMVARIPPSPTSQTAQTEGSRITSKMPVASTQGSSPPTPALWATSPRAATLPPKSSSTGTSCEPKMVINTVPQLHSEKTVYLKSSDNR

marmoset SEMA4D-His (marmoset), sequence (chain, as listed by the source): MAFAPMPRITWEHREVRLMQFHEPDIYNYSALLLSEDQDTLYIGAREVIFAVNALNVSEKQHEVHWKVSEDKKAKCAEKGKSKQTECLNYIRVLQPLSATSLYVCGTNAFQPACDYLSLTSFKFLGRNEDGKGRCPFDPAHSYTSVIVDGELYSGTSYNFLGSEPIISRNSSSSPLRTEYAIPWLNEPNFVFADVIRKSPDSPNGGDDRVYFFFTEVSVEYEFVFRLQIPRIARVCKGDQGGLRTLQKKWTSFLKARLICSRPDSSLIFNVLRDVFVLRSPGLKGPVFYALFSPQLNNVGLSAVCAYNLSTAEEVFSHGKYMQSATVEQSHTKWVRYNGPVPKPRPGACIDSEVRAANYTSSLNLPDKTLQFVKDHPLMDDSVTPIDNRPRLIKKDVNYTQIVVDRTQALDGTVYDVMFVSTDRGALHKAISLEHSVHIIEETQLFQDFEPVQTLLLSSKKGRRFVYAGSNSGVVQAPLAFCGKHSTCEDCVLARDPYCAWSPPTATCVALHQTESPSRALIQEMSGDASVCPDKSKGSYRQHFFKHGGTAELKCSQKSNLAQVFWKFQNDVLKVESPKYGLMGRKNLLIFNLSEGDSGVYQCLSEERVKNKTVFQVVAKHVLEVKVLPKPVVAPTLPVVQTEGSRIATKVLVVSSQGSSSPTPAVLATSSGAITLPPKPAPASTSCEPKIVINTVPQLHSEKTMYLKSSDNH
human SEMA4D-His (human), sequence (Q92854 22-734 limits assumed): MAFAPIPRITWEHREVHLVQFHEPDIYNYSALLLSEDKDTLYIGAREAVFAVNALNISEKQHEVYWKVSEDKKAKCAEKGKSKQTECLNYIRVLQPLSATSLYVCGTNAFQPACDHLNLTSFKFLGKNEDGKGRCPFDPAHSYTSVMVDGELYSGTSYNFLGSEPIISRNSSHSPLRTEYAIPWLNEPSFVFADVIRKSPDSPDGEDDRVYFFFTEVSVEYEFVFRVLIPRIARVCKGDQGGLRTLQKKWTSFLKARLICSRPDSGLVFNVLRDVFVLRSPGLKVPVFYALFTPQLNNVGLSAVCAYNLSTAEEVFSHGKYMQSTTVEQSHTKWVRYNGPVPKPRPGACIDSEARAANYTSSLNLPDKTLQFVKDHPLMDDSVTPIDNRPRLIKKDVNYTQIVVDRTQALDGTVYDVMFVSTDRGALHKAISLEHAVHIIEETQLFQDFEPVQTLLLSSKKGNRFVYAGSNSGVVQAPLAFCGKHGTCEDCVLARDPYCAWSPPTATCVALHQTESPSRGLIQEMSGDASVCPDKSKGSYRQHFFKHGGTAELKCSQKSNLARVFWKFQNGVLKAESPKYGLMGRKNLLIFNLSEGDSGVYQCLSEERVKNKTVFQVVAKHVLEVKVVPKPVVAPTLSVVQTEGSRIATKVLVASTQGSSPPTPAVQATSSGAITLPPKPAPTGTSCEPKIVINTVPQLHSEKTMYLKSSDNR
mouse SEMA4D-His (mouse), sequence (O09126 24-733 limits assumed): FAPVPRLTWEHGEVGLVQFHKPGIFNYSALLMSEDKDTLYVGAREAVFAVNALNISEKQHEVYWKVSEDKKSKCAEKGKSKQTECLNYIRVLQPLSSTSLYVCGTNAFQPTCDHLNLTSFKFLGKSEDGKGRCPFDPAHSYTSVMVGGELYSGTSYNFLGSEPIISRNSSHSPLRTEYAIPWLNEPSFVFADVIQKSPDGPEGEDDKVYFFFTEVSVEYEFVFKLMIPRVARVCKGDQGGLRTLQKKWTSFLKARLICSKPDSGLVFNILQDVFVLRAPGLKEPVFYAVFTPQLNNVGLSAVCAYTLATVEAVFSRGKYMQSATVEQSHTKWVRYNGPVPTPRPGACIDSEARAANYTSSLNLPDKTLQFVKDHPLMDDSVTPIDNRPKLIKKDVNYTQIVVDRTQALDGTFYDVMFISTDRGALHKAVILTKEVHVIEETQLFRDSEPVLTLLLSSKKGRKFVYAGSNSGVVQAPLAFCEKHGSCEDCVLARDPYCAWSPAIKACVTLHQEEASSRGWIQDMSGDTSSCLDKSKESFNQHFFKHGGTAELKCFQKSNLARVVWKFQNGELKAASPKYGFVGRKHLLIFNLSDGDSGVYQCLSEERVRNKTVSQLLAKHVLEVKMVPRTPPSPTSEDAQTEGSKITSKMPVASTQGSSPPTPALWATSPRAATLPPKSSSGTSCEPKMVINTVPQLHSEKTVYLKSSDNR

B1: humanized MAb 2503 (VX15/2503) (antibody, INN chains, looked up, V domains shown)
VH: QVQLVQSGAEVKKPGSSVKVSCKASGYSFSDYYMHWVRQAPGQGLEWMGQINPTTGGASYNQKFKGKATITVDKSTSTAYMELSSLRSEDTAVYYCARYYYGRHFDVWGQGTTVTVSS
VL: DIVMTQSPDSLAVSLGERATINCKASQSVDYDGDSYMNWYQQKPGQPPKLLIYAASNLESGVPDRFSGSGSGTDFTLTISSLQAEDVAVYYCQQSNEDPYTFGQGTKLEIK
With B1, the Ka was determined as 2.06e+08 M⁻¹ in test [1] and 2.4e+08 M⁻¹ in test [2]. Besides, the dissociation constant Kd in test [1] worked out at 4.86 nM; in test [2], 4.17 nM. Further, the koff stood at 0.00118 s⁻¹ in test [1] and 0.00126 s⁻¹ in test [2]. In addition, the on-rate (kon) in test [1] worked out at 243000 M⁻¹ s⁻¹; in test [2] it was 302000 M⁻¹ s⁻¹. Further, the EC50 was determined as 0.5 nM in test [3], 0.3 nM with human SEMA4D-His (human), 0.4 nM with mouse SEMA4D-His (mouse) and 0.6 nM in the test with rat SEMA4D-His (rat).
